Measurements: publication doi:10.64898/2025.12.23.696137 (bioRxiv, 2025)

Target: the molecule itself
Test: co-IP

B1: METTL9-FLAG wild type (mouse) (enzyme)
chain: RRMWTLRSPLSRSLYVNMTSGPGGPAAAAGGGKDTHQWYVCNREKLCESLQSVFVQSYLDQGTQIFLNNSIEKSGWLFIQLYHSFVSSVFSLFMSRTSINGLLGRGSMFVFSPDQFQRLLRINPDWKTHRLLDLGAGDGEVTKIMSPHFEEIYATELSETMIWQLQKKKYRVLGINEWQNTGFQYDVISCLNLLDRCDQPLTLLKDIRSVLEPTQGRVILALVLPFHPYVENVGGKWEKPSEILEIKGQNWEEQVNSLPEVFRKAGFVVEAFTRLPYLCEGDMYNDYYVLDDAVFVLRPV
modifications: N-linked glycans at Asn-35 and Asn-86
B1 was tested, and the “stoichiometry N” value was 2.
